Test system: CyPPO10
Experiment: PPO enzyme activity and IC50 by herbicides, CyPPO10 wild type and variants (MBP-PPO fusion)
Assay type: biochemical, Thermosynechococcus elongatus BP-1
Settings: PPO enzyme activity of CyPPO10 protein, wild type = 100
Experimental: The enzyme activities of PPO protein and PPO protein variants were examined, and inhibition assay by PPO-inhibiting herbicides was conducted. It was confirmed that the PPO protein has low water-solubility, but in case of being expressed as a fusion protein with MBP (maltose binding protein) (MBP-PPO), the PPO protein is able to be stably expressed as water-soluble form. Therefore, the wild type and variant proteins which were expressed in the form of fusion protein with MBP were used in the present test (refer to FIG. 4).
In order to express wild type genes and mutant genes of CyPPO10 and CyPPO13 (refer to Example 1 and Example 4), those genes were introduced to pMAL-c2X vector (refer to FIG. 5) respectively, and then cloned to BL21 (DE3) E. coli (CodonPlus).
The enzyme activity of the purified wild type protein and variant proteins of CyPPO10 and CyPPO13 was measured by the following process.
At first, a substrate of PPO protein, Protoporphyrinogen IX was synthesized. This process was performed in the space where nitrogen gas is streamed. 6 mg of protoporphyrin IX was dissolved in 20% (v/v) EtOH 20 ml, and stirred under dark condition for 30 minutes. The obtained protoporphyrinogen IX solution was put into a 15 ml screw tube in an amount of 800 and flushed with nitrogen gas for 5 minutes. To this, 1 g of sodium amalgam was added and vigorous shaking was performed for 2 minutes. The lid was open to exhaust hydrogen gas in the tube. Thereafter, the lid was closed and incubated for 3 minutes. The […] was filtered using syringe and cellulose membrane filter. To 600 μl of the obtained […], 2M MOPS [3-(N-morpholino)propanesulfonic acid] was added in an amount of approximately 300 thereby adjusting pH to 8.0. To determine the enzyme activity of PPO protein, a reaction mixture was prepared with the following composition (based on 10 ml): 50 mM Tris-Cl (pH 8.0); 50 mM NaCl; 0.04% (v/v) Tween 20; 40 mM glucose (0.072 g); 5 units glucose oxidase (16.6 mg); and 10 units catalase (1 μl).
Two hundred microliters (200 μl) of reaction mixture containing a purified PPO protein were placed in 96 well plates, and preincubated for 30 min at room temperature to reduce the oxygen concentration by the reaction of glucose oxidase-catalase. The mineral oil was layered and then the reaction was initiated by adding the substrate, […], to a final concentration of 50 μM. The reaction proceeded at room temperature for 30 min and the fluorescence of protoporphyrin IX was measured using Microplate reader (Sense, Hidex) (excitation: 405 nm; emission: 633 nm). To calculate the PPO enzyme activity, protoporphyrinogen IX solution was kept open in the air to oxidize the solution (overnight). To this, 2.7N HCl was added, and the absorbance at 408 nm was measured. A standard curve was generated using standard protoporphyrin IX, and the PPO activity was measured by calibration of protoporphyrin IX using the standard curve of protoporphyrin IX.
The final concentration of each herbicide was as follows: […]

Molecule	Activity (%)
CyPPO10 F360V: CyPPO10 (SEQ ID NO: 2) PPO variant (protein, Synthetic CyPPO10) MIEVDVAIVGGGLSGLSVAWRLQRSAPHYSGVLLEASDRLGGNITTQAAEGFVWELGPNSFAPTPALLQLIAEVGLHSELIRGDRHLPRYIYWRGELYPLEPTRPLALATSNLLSPWGKVRAALGALGFVPPYLGSGDESVDSFFRRHLGQEVAERLVAPFVSGVYAGDPQQLSAAAAFRRIAQLEKLGGSLIAGALRLRRQQPPQPKPPAQVQMRPGELGSFREGLAALPRAIAQQLKAPLHLQTPVEAITPEPKGGYLLRSGEQTWHARSVVLATPAYQTAELVAPFQPAIARALATIPYPTVACVVLAYPAGLGRSVRPGFGVLVPRGQGIRTLGTIWSSCLFPQRTPAGWQVFTSVIGGATDPDLASLREEAIVEQVQQDLTRLLDLPAAKARLLGMKVWRRAIPQYIVGYPQQWQQVTHALTQTPGLFLCSNYAEGVALGDRVEHGNRTAAAVAAYLAGGQS	56
CyPPO10 V165S + F360M: CyPPO10 (SEQ ID NO: 2) PPO variant (protein, Synthetic CyPPO10) MIEVDVAIVGGGLSGLSVAWRLQRSAPHYSGVLLEASDRLGGNITTQAAEGFVWELGPNSFAPTPALLQLIAEVGLHSELIRGDRHLPRYIYWRGELYPLEPTRPLALATSNLLSPWGKVRAALGALGFVPPYLGSGDESVDSFFRRHLGQEVAERLVAPFVSGSYAGDPQQLSAAAAFRRIAQLEKLGGSLIAGALRLRRQQPPQPKPPAQVQMRPGELGSFREGLAALPRAIAQQLKAPLHLQTPVEAITPEPKGGYLLRSGEQTWHARSVVLATPAYQTAELVAPFQPAIARALATIPYPTVACVVLAYPAGLGRSVRPGFGVLVPRGQGIRTLGTIWSSCLFPQRTPAGWQVFTSMIGGATDPDLASLREEAIVEQVQQDLTRLLDLPAAKARLLGMKVWRRAIPQYIVGYPQQWQQVTHALTQTPGLFLCSNYAEGVALGDRVEHGNRTAAAVAAYLAGGQS	78
CyPPO10 R89A + F360I: CyPPO10 (SEQ ID NO: 2) PPO variant (protein, Synthetic CyPPO10) MIEVDVAIVGGGLSGLSVAWRLQRSAPHYSGVLLEASDRLGGNITTQAAEGFVWELGPNSFAPTPALLQLIAEVGLHSELIRGDRHLPAYIYWRGELYPLEPTRPLALATSNLLSPWGKVRAALGALGFVPPYLGSGDESVDSFFRRHLGQEVAERLVAPFVSGVYAGDPQQLSAAAAFRRIAQLEKLGGSLIAGALRLRRQQPPQPKPPAQVQMRPGELGSFREGLAALPRAIAQQLKAPLHLQTPVEAITPEPKGGYLLRSGEQTWHARSVVLATPAYQTAELVAPFQPAIARALATIPYPTVACVVLAYPAGLGRSVRPGFGVLVPRGQGIRTLGTIWSSCLFPQRTPAGWQVFTSIIGGATDPDLASLREEAIVEQVQQDLTRLLDLPAAKARLLGMKVWRRAIPQYIVGYPQQWQQVTHALTQTPGLFLCSNYAEGVALGDRVEHGNRTAAAVAAYLAGGQS	38
CyPPO10 V165S + F360I: CyPPO10 (SEQ ID NO: 2) PPO variant (protein, Synthetic CyPPO10) MIEVDVAIVGGGLSGLSVAWRLQRSAPHYSGVLLEASDRLGGNITTQAAEGFVWELGPNSFAPTPALLQLIAEVGLHSELIRGDRHLPRYIYWRGELYPLEPTRPLALATSNLLSPWGKVRAALGALGFVPPYLGSGDESVDSFFRRHLGQEVAERLVAPFVSGSYAGDPQQLSAAAAFRRIAQLEKLGGSLIAGALRLRRQQPPQPKPPAQVQMRPGELGSFREGLAALPRAIAQQLKAPLHLQTPVEAITPEPKGGYLLRSGEQTWHARSVVLATPAYQTAELVAPFQPAIARALATIPYPTVACVVLAYPAGLGRSVRPGFGVLVPRGQGIRTLGTIWSSCLFPQRTPAGWQVFTSIIGGATDPDLASLREEAIVEQVQQDLTRLLDLPAAKARLLGMKVWRRAIPQYIVGYPQQWQQVTHALTQTPGLFLCSNYAEGVALGDRVEHGNRTAAAVAAYLAGGQS	63
CyPPO10 N59T + F360V: CyPPO10 (SEQ ID NO: 2) PPO variant (protein, Synthetic CyPPO10) MIEVDVAIVGGGLSGLSVAWRLQRSAPHYSGVLLEASDRLGGNITTQAAEGFVWELGPTSFAPTPALLQLIAEVGLHSELIRGDRHLPRYIYWRGELYPLEPTRPLALATSNLLSPWGKVRAALGALGFVPPYLGSGDESVDSFFRRHLGQEVAERLVAPFVSGVYAGDPQQLSAAAAFRRIAQLEKLGGSLIAGALRLRRQQPPQPKPPAQVQMRPGELGSFREGLAALPRAIAQQLKAPLHLQTPVEAITPEPKGGYLLRSGEQTWHARSVVLATPAYQTAELVAPFQPAIARALATIPYPTVACVVLAYPAGLGRSVRPGFGVLVPRGQGIRTLGTIWSSCLFPQRTPAGWQVFTSVIGGATDPDLASLREEAIVEQVQQDLTRLLDLPAAKARLLGMKVWRRAIPQYIVGYPQQWQQVTHALTQTPGLFLCSNYAEGVALGDRVEHGNRTAAAVAAYLAGGQS	62
CyPPO10 V165S + F360L: CyPPO10 (SEQ ID NO: 2) PPO variant (protein, Synthetic CyPPO10) MIEVDVAIVGGGLSGLSVAWRLQRSAPHYSGVLLEASDRLGGNITTQAAEGFVWELGPNSFAPTPALLQLIAEVGLHSELIRGDRHLPRYIYWRGELYPLEPTRPLALATSNLLSPWGKVRAALGALGFVPPYLGSGDESVDSFFRRHLGQEVAERLVAPFVSGSYAGDPQQLSAAAAFRRIAQLEKLGGSLIAGALRLRRQQPPQPKPPAQVQMRPGELGSFREGLAALPRAIAQQLKAPLHLQTPVEAITPEPKGGYLLRSGEQTWHARSVVLATPAYQTAELVAPFQPAIARALATIPYPTVACVVLAYPAGLGRSVRPGFGVLVPRGQGIRTLGTIWSSCLFPQRTPAGWQVFTSLIGGATDPDLASLREEAIVEQVQQDLTRLLDLPAAKARLLGMKVWRRAIPQYIVGYPQQWQQVTHALTQTPGLFLCSNYAEGVALGDRVEHGNRTAAAVAAYLAGGQS	59
CyPPO10 R89A + F360M: CyPPO10 (SEQ ID NO: 2) PPO variant (protein, Synthetic CyPPO10) MIEVDVAIVGGGLSGLSVAWRLQRSAPHYSGVLLEASDRLGGNITTQAAEGFVWELGPNSFAPTPALLQLIAEVGLHSELIRGDRHLPAYIYWRGELYPLEPTRPLALATSNLLSPWGKVRAALGALGFVPPYLGSGDESVDSFFRRHLGQEVAERLVAPFVSGVYAGDPQQLSAAAAFRRIAQLEKLGGSLIAGALRLRRQQPPQPKPPAQVQMRPGELGSFREGLAALPRAIAQQLKAPLHLQTPVEAITPEPKGGYLLRSGEQTWHARSVVLATPAYQTAELVAPFQPAIARALATIPYPTVACVVLAYPAGLGRSVRPGFGVLVPRGQGIRTLGTIWSSCLFPQRTPAGWQVFTSMIGGATDPDLASLREEAIVEQVQQDLTRLLDLPAAKARLLGMKVWRRAIPQYIVGYPQQWQQVTHALTQTPGLFLCSNYAEGVALGDRVEHGNRTAAAVAAYLAGGQS	67
CyPPO10 R89A + F360L: CyPPO10 (SEQ ID NO: 2) PPO variant (protein, Synthetic CyPPO10) MIEVDVAIVGGGLSGLSVAWRLQRSAPHYSGVLLEASDRLGGNITTQAAEGFVWELGPNSFAPTPALLQLIAEVGLHSELIRGDRHLPAYIYWRGELYPLEPTRPLALATSNLLSPWGKVRAALGALGFVPPYLGSGDESVDSFFRRHLGQEVAERLVAPFVSGVYAGDPQQLSAAAAFRRIAQLEKLGGSLIAGALRLRRQQPPQPKPPAQVQMRPGELGSFREGLAALPRAIAQQLKAPLHLQTPVEAITPEPKGGYLLRSGEQTWHARSVVLATPAYQTAELVAPFQPAIARALATIPYPTVACVVLAYPAGLGRSVRPGFGVLVPRGQGIRTLGTIWSSCLFPQRTPAGWQVFTSLIGGATDPDLASLREEAIVEQVQQDLTRLLDLPAAKARLLGMKVWRRAIPQYIVGYPQQWQQVTHALTQTPGLFLCSNYAEGVALGDRVEHGNRTAAAVAAYLAGGQS	30

Reference: patent US11466286B2, “Methods and compositions for conferring and/or enhancing herbicide tolerance using protoporphyrinogen oxidase or variant thereof” (FarmHannong Co., Ltd., priority 2016, dated 2022)
